Target: T1, GST-Zc3h10 full length (UniProt Q8R205 1-435)
T1 sequence: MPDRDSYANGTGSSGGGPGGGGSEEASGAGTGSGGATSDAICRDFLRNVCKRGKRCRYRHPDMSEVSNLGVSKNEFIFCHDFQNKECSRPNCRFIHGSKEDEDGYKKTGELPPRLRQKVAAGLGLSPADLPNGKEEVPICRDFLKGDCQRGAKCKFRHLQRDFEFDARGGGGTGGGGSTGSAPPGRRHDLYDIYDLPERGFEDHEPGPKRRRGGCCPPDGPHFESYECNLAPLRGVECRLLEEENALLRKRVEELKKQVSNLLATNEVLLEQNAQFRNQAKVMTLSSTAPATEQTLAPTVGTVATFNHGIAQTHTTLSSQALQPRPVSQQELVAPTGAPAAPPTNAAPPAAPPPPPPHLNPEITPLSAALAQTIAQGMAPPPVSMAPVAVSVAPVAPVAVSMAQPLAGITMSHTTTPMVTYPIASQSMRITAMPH
Test: EMSA

B1: -4.6 kb UCP1 probe (dsDNA)
DNA 1: TTTACCAAGTCCTTTCCACCGTGCAGGACGCACCATTCGGCAGCTTCCAGTTGTCTGGGAACTTCCAGTTGAAGGGATGA
DNA 2: TCATCCCTTCAACTGGAAGTTCCCAGACAACTGGAAGCTGCCGAATGGTGCGTCCTGCACGGTGGAAAGGACTTGGTAAA
- binding result: binds

Reference: PMC6911170
